Assay results from patent EP4763862A1 (Beijing Tide Pharmaceutical Co., Ltd., dated 2026).
Residue numbers refer to the chain shown, from its start.

T1: mouse B7-H3 on CHO-mouse B7-H3 cells (mouse, UniProt Q8VE98 29-316)
T1 construct: whole, on cells; also called CHO-S-mouse-B7-H3; murine B7-H3
T1 sequence (looked up): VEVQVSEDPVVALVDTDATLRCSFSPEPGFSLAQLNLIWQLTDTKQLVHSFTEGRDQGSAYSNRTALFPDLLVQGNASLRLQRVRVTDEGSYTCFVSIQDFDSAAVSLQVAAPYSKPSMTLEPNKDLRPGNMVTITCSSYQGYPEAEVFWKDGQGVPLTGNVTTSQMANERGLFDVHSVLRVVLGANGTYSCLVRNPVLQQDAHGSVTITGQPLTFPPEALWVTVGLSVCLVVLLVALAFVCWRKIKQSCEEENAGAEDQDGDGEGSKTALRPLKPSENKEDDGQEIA

T2: B7-H3 on NCI-H446 cells (UniProt Q5ZPR3 29-534)
T2 construct: whole, on cells
T2 sequence (looked up): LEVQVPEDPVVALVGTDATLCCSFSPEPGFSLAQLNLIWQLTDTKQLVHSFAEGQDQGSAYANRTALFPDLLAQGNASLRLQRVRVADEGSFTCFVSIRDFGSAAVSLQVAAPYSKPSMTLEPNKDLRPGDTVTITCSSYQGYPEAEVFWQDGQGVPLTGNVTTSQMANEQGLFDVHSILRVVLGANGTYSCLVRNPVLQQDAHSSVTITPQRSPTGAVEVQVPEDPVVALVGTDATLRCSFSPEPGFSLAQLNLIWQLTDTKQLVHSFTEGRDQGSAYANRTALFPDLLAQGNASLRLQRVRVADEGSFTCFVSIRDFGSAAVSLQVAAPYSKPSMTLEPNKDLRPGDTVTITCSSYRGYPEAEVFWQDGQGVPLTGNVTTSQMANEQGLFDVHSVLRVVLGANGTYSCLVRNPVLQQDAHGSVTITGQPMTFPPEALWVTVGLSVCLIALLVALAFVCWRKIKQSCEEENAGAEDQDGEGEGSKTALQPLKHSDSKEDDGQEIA

B1: 48-B4-F4-E4 (antibody, human IgG1, kappa)
heavy: not shown
light: DVLMTQTPLSLPVSLGDQVSISCRASQSLANSYGKTYLSWYLHKPGQSPQLLIYGISNRFSGVPDRFSGSGSGTDFTLKISTIKPEDLGMYYCLHGTHQPLTFGAGTKLELKRTVAAPSVFIFPPSDEQLKSGTASVVCLLNNFYPREAKVQWKVDNALQSGNSQESVTEQDSKDSTYSLSSTLTLSKADYEKHKVYACEVTHQGLSSPVTKSFNRGEC
notes: also called CE4
B2: 19-F1-E9-B11 (antibody, human IgG1, kappa, V domains shown)
VH: EVQLQQSGPSLVKPSQTLSLTCSVTGGSITSFYWNWIRKFPGNKLEYMGYISSSGSTYYNPSLKSRISITRDTSKNQSYLQLNSVTAEDTATYYCARGGVHYGFGDYWGQGTSVTVSS
VL: DIVMTQSAPSVPVTPGESVSISCRSSKSLLHSNGNTYLYWFLQRPGQSPQLLIYRMSNLASGVPDRFSGSGSGTAFTLRISRVEAEDVGVYYCMQHLEYPLTFGAGTKLELKR
notes: also called CB11
B3: 9-F1-D9-F10 (antibody, human IgG1, kappa, V domains shown)
VH: EVQLVESGGGLVQPGGSLRVSCATSGFTFSDYYMSWVRQPPGKALEWLGFIRNKINGYTTEYSASVKGRFTISRDNSQSILYLQMNTLRAEDSATYYCTRDSSQRPFAYWGQGTLVTVSA
VL: DIVMTQSPSSLSVSAGEKVTMTCKSSQSLLNSRSQKNFLAWYQQKPGQPPKLLIYGASTRESGVPDRFTGSGSGTDFTLTISNVQAEDLAVYYCQNDLTYPLTFGAGTKLELKR
B4: 16-D10-E1-E1 (antibody, human IgG1, kappa, V domains shown)
VH: EVQLQQSGPELVRPGVSVKISCKGSGYTFTDYAMHWVKQSHAKSLEWIGVINTYSGNTYYSQKFKGKATMTVDKSSSTAYMELARLTSEDSAIYYCARGAGYFPYWYFDVWGAGTTVTVSS
VL: DIQMIQSPSYLAASPGETITINCRASKSISKYLAWYQEKPGKTNKLLIYSGSTLQSGIPSRFSGSGSGTDFTLTISSLEPEDFAMYYCQQHYEYPYTFGGGTKLEIKR
B5: 28-B5-B6-C6 (antibody, human IgG1, kappa, V domains shown)
VH: EVKLQESGPGLVKPSQSLSLTCTVTGYSITSDYAWNWIRQFPGNILEWMGYISYSGSASYNPSLQSRISVTRDTSKNQFFLQLNSVTTEDTATYYCVRSLGRRWYFGFWGAGTTVTVSS
VL: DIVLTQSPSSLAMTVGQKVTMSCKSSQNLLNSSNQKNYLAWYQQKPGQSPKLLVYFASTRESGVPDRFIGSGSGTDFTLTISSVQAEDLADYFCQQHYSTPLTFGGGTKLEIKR
B6: 29-A9-G8-F6 (antibody, human IgG1, kappa, V domains shown)
VH: EVQLQQSGPELVRPGVSVKISCKGSGYTFTDYSMHWVKQSHAKSLEWIGVINTSSGNTYYNLKFKGKATMTVDKSSSTAYMELARLTSEDSAIYYCSKYYGSSFHWYFDVWGAGTTVTVSS
VL: DIVMTQSPVIMSASPGEKVTMTCSASSSVSYMHWYQQKSSTSPKLWIYDTSKLASGVPGRFSGTGSGKSHSLTISSMEAEDVATYYCFQGSGYPLTFGSGTKLEIKR
B7: 9-A2-G3-H11 (antibody, human IgG1, kappa, V domains shown)
VH: EVQLQQSGPELVRPGESVKISCKGSGYTFTDYAIHWVKQSHAKSLEWIGVISTYYDNTYYNQKFKGRATMTVDKSSSTAYMELARLTSEDSAIYYCARGYGSSFNWYFDVWGAGTTVTVSS
VL: DIVMTQSPSSLAVSAGEKVTMSCKSSQSLLNSRTRKNYLAWYQQKPGQSPKLLIYWASTRESGVPDRFTGSGSGTDFTLTITSVQAEDLAVYYCKQSYNLYTFGGGTKLEIKR
B8: cAb1-uIgG1K (antibody)
heavy: not shown
light: B1 light
notes: Parental chimeric antibody of the cAb1 series; also called cAb1-ulgG1K
B9: 28-B1-E8-C11 (antibody, human IgG1, kappa, V domains shown)
VH: EVKLVESGAVLVKPGASVKISCKASGYTLSDFNMDWVKQSQGKSLEWVGDINPNYDTITYNQKFRGKATLTVDRSSNTAYMELRSLTSEDSAVYYCARGELGRYFYVWGAGTTVTVSS
VL: DIQLTQPPASLSASVGETVTITCRASENVYSYLAWYRQKQGRSPQLLVYNAKTLPEGVPSRFSGSGSGTQFSLKINSLQTEDLGDYYCQHHYGTPWTFGGGTKLEIKR
notes: parent of the cAb2 humanized antibodies; also called CC11
B10: cAb2-z0-p9 (antibody, human IgG1, kappa, V domains shown)
VH: B9 VH
VL: DIQLTQPPSSLSASVGDRVTITCRASENVYSYLAWYQQKPGRSPQLLVYNAKTLQEGVPSRFSGSGSGTQFTLTISSLQPEDVADYYCQHHYGTPWTFGGGTKVEIKR
notes: Humanized from 28-B1-E8-C11; Human IgG1 / kappa
B11: cAb2-z1-p9 (antibody, human IgG1, kappa, V domains shown)
VH: B9 VH
VL: B10 VL with Q55P, V83F, Q89S
notes: Humanized from 28-B1-E8-C11; Human IgG1 / kappa; also called cAb2-zl-p9
B12: cAb2-z2-p6 (antibody, human IgG1, kappa, V domains shown)
VH: QVQLVESGAVVKKPGASVKVSCKASGYTLSDFNMDWVRQAPGKSLEWMGDINPNYDTITYNQKFRGRVTLTVDRSINTAYMELSRLRSDDTAVYYCARGELGRYFYVWGAGTMVTVSS
VL: B10 VL with V83F
notes: as for B10
B13: cAb2-z3-p6 (antibody, human IgG1, kappa, V domains shown)
VH: B12 VH
VL: B10 VL with S10F, Q70E, V83F
notes: as for B10
B14: cAb2-z4-p6 (antibody, human IgG1, kappa, V domains shown)
VH: B12 VH
VL: B10 VL
notes: as for B10
B15: cAb2-z5-p6 (antibody, human IgG1, kappa, V domains shown)
VH: B12 VH
VL: B10 VL with Q55P, V83F, Q89S
notes: as for B10

target: T1, mouse B7-H3 on CHO-mouse B7-H3 cells; test: flow cytometry on CHO-mouse B7-H3 cells, antibody 10 µg/ml

Row | Binder | binding result
1 | B1 | binds
2 | B2 | binds
3 | B3 | binds
4 | B4 | binds
5 | B5 | binds
6 | B6 | binds
7 | B7 | binds

target: T2, B7-H3 on NCI-H446 cells; test: flow cytometry on NCI-H446 cells, goat anti-human Fc secondary

Row | Binder | EC50 [nM]
8 | B8 | 3.45
9 | B9 | 4.45
10 | B10 | 1.15
11 | B11 | 2.22
12 | B12 | 1.36
13 | B13 | 1.06
14 | B14 | 0.552
15 | B15 | 3.92

target: T3, B7-H3 Cyno-His (cynomolgus monkey); test: SPR, Biacore 8K, antibody captured by anti-human IgG Fc on CM5, B7-H3 Cyno-His as analyte, 1:1 model
T3 construct: also called cynomolgus monkey B7-H3

Row | Binder | Kd [nM] | koff [s⁻¹] | kon [M⁻¹ s⁻¹]
16 | B8 | 3.35 | 5.47e-05 | 16300
